Test results reported in patent publication US20220249369.

Biological target: T1, OmpTs, DABCYL-RRSRRV-K(5-FAM)
T1 chain: RRSRRVK

B1: Outer Membrane Protease T (protein)
chain: STETLSFTPDNINADISLGTLSGKTKERVYLAEEGGRKVSQLDWKFNNAAIIKGAINWDLMPQISIGAAGWTTLGSRGGNMVDQDWMDSSNPGTWTDESRHPDTQLNYANEFDLNIKGWLLNEPNYRLGLMAGYQESRYSFTARGGSYIYSSEEGFRDDIGSFPNGERAIGYKQRFKMPYIGLTGSYRYEDFELGGTFKYSGWVESSDNDEHYDPGKRITYRSKVKDQNYYSVAVNAGYYVTPNAKVYVEGAWNRVTNKKGNTSLYDHNNNTSDYSKNGAGIENYNFITTAGLKYTF
- cleavage of quenched fluorescent substrate: a substrate (RRSRRVK (SEQ ID NO:9)) specific for the E. coli surface protease OmpT
